# Data as given in patent publication US20180230219A1 (HELIX BIOPHARMA, published 2018).
# B1: AB4 with linker 2; VR2-38 (SEQ ID NO:27) (VHH)
# VHH: QVKLEESGGGLVQAGGSLRLSCAASGGTASSYAMGWFRQAPGKEREFVAAISRSGGNTDYVDSAKGRFTISRDDAKNTVSLQMNSLRLEDTAVYYCAARYAGTWPNDAGTVYWLPPNYNYWGQGTQVTVSS
# Target: T1, human VEGFR-2/Fc (R&D Systems) (human, UniProt P35968 20-764)
# T1 construct: also called recombinant VEGFR2/Fc; VEGFR/Fc; not shown: Fc part of the bought fusion protein (captured by anti-human IgG-Fc in the ELISA)
# T1 sequence (P35968 20-764): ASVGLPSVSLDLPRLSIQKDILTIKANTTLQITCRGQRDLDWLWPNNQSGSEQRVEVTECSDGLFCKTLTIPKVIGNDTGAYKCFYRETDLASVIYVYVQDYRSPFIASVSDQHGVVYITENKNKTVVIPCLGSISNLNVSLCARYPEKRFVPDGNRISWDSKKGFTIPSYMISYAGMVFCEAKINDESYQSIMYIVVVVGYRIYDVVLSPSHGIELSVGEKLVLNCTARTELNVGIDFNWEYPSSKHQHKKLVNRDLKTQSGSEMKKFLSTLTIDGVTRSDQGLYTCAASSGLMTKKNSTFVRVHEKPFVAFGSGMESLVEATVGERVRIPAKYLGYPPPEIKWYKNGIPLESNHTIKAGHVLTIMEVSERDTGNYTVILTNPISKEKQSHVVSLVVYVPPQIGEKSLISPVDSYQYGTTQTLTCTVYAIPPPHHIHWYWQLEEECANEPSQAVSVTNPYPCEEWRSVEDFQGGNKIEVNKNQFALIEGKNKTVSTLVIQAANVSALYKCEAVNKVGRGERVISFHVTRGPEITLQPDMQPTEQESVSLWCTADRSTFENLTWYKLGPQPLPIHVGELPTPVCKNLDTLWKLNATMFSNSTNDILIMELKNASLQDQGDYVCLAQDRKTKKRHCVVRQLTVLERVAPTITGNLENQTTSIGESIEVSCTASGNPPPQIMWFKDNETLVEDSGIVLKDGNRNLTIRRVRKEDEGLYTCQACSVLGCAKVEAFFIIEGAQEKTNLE
# Assay: SPR, Biacore 3000, human VEGFR-2/Fc immobilized
binder,measurement,value
B1,Kd,80 nM
same,koff,0.015 s⁻¹
